Measurements from US20200276130A1 (WISCONSIN ALUMNI RESEARCH FOUNDATION, published 2020).
Values belong to the binder of their own block, whether it stands above or below them.

Key:
[1] = molecular target: T1, GST-CARM1 fusion protein (glutathione S-transferase tagged co-activator associated arginine methyltransferase … (UniProt Q86X55 1-608)); assay: in vitro interaction assay, in vitro translated Flag-PKM2 truncation with GST-CARM1
T1 construct: Expressed in E. coli BL-21, purified on glutathione sepharose; also called GST tagged CARM1; not shown: glutathione S-transferase (GST) tag
T1 sequence (looked up): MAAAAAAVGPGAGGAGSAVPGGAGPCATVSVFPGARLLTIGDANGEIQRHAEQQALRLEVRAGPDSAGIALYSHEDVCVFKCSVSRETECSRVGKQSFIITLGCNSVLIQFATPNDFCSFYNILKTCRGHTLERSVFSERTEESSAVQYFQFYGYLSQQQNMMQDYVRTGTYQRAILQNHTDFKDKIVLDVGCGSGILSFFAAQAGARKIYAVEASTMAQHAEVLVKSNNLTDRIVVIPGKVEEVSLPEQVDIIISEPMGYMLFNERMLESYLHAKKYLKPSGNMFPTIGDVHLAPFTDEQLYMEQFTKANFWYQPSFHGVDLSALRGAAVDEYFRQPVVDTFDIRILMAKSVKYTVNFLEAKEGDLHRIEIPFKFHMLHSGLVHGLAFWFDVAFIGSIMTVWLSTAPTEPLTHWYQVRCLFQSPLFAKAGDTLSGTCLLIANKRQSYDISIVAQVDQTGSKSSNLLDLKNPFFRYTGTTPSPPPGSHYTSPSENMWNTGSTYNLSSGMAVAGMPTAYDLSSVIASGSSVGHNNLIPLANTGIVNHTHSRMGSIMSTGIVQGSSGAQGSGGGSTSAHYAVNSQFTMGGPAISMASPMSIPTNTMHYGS
Procedure: Flag-tagged full length PKM2 and its truncations constructs were translated by T7 Quick Coupled Translation/Transcription system (Promega). […] The beads were washed 4 times with binding buffer, and recombinant proteins were eluted with 500 μg/ml 3× Flag peptides. Samples were analyzed by SDS-PAGE and Western blotting.

[2] = molecular target: T2, endogenous IP3R1 (inositol 1,4,5-trisphosphate receptor 1) (human, UniProt Q14643 1-2758, limits assumed); assay: anti-Flag M2 resin immunoprecipitation from MCF7 cells, Western blot
T2 construct: Endogenous protein co-precipitated from cell lysate; also called ITPR1
T2 sequence (Q14643 whole entry): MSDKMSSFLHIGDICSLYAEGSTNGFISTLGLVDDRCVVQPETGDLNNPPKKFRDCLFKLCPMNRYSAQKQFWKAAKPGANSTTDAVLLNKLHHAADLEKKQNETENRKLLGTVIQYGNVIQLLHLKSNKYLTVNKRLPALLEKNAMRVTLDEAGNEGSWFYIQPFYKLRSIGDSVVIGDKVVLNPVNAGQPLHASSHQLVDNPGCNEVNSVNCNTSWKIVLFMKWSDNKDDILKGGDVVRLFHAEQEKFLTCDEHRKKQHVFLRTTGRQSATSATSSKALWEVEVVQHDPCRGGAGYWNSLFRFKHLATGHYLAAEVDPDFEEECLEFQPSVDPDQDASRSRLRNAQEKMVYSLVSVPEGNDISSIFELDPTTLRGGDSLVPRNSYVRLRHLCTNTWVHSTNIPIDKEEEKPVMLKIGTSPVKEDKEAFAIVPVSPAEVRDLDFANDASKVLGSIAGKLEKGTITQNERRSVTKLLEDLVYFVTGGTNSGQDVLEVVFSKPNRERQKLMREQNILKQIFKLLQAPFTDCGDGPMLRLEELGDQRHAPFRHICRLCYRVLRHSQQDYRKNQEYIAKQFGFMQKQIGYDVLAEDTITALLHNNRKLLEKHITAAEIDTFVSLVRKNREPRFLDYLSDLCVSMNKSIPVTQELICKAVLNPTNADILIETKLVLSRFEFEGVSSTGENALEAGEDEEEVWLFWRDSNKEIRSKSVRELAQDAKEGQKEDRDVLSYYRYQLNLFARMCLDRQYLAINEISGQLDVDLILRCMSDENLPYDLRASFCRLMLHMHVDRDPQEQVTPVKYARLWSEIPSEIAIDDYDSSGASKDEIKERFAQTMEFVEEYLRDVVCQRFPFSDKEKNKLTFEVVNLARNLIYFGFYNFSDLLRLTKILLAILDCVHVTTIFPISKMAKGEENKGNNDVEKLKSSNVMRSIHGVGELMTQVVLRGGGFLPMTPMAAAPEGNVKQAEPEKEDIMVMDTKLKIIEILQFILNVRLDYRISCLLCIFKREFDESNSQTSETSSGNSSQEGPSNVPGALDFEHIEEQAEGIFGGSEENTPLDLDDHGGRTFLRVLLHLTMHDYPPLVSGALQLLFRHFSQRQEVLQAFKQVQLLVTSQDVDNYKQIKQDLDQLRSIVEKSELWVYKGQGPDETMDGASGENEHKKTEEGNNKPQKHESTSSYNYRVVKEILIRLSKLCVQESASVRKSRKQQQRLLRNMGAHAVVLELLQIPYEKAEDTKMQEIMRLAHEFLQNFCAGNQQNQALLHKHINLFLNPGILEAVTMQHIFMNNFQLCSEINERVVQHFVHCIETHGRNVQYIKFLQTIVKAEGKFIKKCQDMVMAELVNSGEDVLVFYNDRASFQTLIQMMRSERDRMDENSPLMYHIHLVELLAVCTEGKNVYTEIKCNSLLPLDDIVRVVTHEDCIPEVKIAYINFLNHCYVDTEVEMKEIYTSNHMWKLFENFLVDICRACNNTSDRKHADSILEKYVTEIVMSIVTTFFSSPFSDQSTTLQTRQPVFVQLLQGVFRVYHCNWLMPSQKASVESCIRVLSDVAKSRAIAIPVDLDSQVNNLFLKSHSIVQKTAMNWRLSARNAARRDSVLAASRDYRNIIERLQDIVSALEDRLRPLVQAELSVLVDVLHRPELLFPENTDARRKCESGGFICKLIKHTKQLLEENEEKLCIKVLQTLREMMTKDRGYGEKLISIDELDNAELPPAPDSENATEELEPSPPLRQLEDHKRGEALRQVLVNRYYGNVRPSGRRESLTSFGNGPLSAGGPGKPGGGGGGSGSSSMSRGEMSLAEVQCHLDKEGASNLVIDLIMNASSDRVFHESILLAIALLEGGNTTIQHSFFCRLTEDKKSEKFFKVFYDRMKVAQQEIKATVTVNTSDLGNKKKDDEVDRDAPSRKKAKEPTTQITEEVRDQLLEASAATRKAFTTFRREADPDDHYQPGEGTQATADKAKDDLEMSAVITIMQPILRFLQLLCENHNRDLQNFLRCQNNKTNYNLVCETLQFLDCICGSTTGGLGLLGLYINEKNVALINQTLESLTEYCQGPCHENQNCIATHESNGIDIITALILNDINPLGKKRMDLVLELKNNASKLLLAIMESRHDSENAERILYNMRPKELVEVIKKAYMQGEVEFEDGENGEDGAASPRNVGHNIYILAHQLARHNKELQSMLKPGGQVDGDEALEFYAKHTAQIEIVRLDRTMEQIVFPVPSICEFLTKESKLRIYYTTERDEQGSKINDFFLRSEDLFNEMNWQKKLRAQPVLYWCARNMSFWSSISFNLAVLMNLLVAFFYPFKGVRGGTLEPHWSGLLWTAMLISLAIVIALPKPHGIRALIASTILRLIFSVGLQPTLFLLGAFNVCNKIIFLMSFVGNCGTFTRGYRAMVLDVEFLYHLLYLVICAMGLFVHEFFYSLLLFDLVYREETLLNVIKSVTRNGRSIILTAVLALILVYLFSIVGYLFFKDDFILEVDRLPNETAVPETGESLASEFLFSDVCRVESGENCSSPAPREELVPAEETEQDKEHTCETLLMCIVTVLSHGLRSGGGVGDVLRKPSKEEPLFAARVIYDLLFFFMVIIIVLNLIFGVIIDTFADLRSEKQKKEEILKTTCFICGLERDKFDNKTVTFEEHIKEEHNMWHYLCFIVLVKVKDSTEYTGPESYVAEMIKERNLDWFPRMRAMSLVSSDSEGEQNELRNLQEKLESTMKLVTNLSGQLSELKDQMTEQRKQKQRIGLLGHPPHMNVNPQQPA

[3] = molecular target: T3, endogenous IP3R3 (inositol 1,4,5-trisphosphate receptor 3) (human, UniProt Q14573 1-2671); assay: as above
T3 construct: Endogenous protein co-precipitated from cell lysate; also called ITPR3

endogenous HSPA9 = molecular target: T4, endogenous HSPA9 (human, UniProt P38646 47-679); assay: anti-Flag co-immunoprecipitation from MCF7 cell lysates, Western blot
T4 construct: Endogenous protein co-precipitated from cell lysate
T4 sequence (P38646 47-679 limits assumed): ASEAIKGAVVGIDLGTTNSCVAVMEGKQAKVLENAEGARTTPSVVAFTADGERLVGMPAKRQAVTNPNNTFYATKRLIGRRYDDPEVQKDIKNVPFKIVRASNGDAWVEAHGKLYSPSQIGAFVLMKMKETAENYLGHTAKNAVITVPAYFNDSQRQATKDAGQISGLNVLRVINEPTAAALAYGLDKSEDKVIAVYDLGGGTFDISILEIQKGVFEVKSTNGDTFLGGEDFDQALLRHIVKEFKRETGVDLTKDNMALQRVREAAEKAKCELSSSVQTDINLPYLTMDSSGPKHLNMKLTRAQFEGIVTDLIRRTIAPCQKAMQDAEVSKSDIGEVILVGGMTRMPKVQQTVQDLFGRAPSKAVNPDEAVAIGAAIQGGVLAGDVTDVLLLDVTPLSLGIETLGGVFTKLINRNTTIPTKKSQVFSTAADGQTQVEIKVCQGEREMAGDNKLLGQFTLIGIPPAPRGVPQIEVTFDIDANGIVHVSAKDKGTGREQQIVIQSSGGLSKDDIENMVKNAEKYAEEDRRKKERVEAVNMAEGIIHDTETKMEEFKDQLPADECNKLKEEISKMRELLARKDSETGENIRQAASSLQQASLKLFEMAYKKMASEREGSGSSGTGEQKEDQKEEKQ

- binding result [1]: no binding
B1: truncated Flag-PKM2 with truncation of both the C domain and the N/A1 domain (enzyme)
chain: not shown
notes: In vitro translated; also called 48 (as printed, probably delta-8); not shown: Flag tag

- binding result [2]: no binding
- binding result [3]: no binding
B2: Flag-tagged PKM2^mut (R445K, R447K and R455K), methylation-defective PKM2 (enzyme)
chain: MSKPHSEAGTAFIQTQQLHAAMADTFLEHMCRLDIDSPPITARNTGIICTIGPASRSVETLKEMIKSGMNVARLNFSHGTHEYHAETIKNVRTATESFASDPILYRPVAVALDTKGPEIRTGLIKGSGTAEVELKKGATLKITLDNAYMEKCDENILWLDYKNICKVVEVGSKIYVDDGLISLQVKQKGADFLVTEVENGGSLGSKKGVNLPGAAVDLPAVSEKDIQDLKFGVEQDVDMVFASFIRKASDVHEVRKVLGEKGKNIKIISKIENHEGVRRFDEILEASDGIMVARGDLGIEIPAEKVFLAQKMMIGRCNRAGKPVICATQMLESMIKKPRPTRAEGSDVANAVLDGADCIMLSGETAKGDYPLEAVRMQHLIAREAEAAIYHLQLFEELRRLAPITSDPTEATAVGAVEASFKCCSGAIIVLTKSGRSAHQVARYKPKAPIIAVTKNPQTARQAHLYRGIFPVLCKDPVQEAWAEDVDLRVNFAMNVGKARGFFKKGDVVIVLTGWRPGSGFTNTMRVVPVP
notes: Stably expressed in MCF7 (and MDA-MB-231) PKM2 KO cells; precipitated with anti-Flag M2 resin; also called PKM2 R445/447/455K; not shown: left out

- binding result (endogenous HSPA9): no binding
B3: Flag-tagged PKM1 (pyruvate kinase M1) (enzyme)
chain: not shown
notes: Purified recombinant protein in the GST pull-down; expressed in MCF7 or HEK293T PKM2 KO cells in the co-immunoprecipitations; also called Flag-PKM1; recombinant PKM1; not shown: Flag tag
